Results: patent publication US8216581 (University of Pennsylvania, dated 2012)
Where a chain is given by its changes, count along the chain named. In names and notes the source's numbering stands.

B1: P3-4 (peptide)
peptide: CPSLAHRWC
notes: From the Cys-7-mer-Cys constrained phage library; also called C7C constrained peptide
B2: P4-12 (peptide)
peptide: DLRLNSLIVPWS
notes: From the 12-mer linear phage library; also called 12-mer linear peptide
B3: P4-7 (peptide)
peptide: FPLNTIIHSAVY
notes: as for B2
B4: P4-2a (peptide)
peptide: CIVPWFFHC
notes: as for B1
B5: H45L61 (Fab, V domains shown)
VH: QVQLVESGGGVVQPGRSLRLSCAASGFTFSNFNMHWVRQAPGKGLEWVALISYDGSSKYYTDSVKGRFTISRDNSKNTLYLQMNSLRPEDTAVYYCMVVGAFDYWGQGTLVTVSS
VL: EIVLTQSPGTLSLSPGERATLSCRASQSVGSSYLAWYQQKPGQAPRLLIYGVSSRATGIPDRFSGSGSGTDFTLTISRLEPEDFAVYYCQQYGGSPLTFGGGTTVEIK
notes: Soluble Fab, clone A
B6: H47L63 (Fab, V domains shown)
VH: B5 VH with A24T, S57N, Y59N, T61A, D62N, Y80F, P88V
VL: EIVLTQSPGTLSLSPGERATLSCRASQSVGNNYLAWYQQRPGRAPRLVMYDPSSRATGIPDRFSGSGSGTDFTLTISRLEPEDFAVYYCQQYGNSPPTFGGGTKVEIK
notes: Soluble Fab, clone A
B7: H47L64 (Fab, V domains shown)
VH: B5 VH with A24T, S57N, Y59N, T61A, D62N, Y80F, P88V
VL: EIVLTQSPDTLSLSPGDRATLSCRASQSVSNYLAWYQQKAGRAPSLLIYGTSRRATDIPDRFSGSGSGTDFTLTISRLEPEDSAVYYCQQYGSASLTFGGGTKVEIK
notes: Soluble Fab, clone A; also called putative GPIb/IX-specific Fab
B8: H29L104 (Fab, V domains shown)
VH: EVQLVESGGGLVKPGGSLRLSCAASGFTFSSYSMNWVRQAPGKGLEWVSSISSSSSYIYYADSVKGRFTISRDNAKNSLYLQMNSLRAEDTAVYYCARDHPNYYDSSGLFDYWGQGTLVTVSS
VL: SSELTQDPAVSVALGQTVRITCQGDSLRSYYASWYQQKPGQAPVLVIYGKNYRPSGIPDRFSGSSSGNTASLTITGAQAEDEADYYCNSRDSSGNHWVFGGGTKLTVL
notes: Soluble Fab
B9: H38L72 (Fab, V domains shown)
VH: QVQLVESGGGVVQPGRSLRLSCAASGFTFSNYAMHWVRQAPGKGLEWVAVISYDGSNKYYADSVKGRFTISRDNSKNTLYLQMNSLRPEDTAVYYCARGGVGAFDYWGQGTLVTVSS
VL: EIVLTQSPATLSVSPGERATLSCRASQSVSSYLAWYQQKPGQAPRLLIYDASNRATGIPARFSGSGSGTDFTLTISSLEPEDFAVYYCQQRSNWPLTFGQGTKVEIK
notes: Soluble Fab
B10: H38L76 (Fab, V domains shown)
VH: B9 VH
VL: not shown
notes: Soluble Fab
B11: H38L74 (Fab, V domains shown)
VH: B9 VH
VL: EIVLTQSPATLSLSPGERATLSCRASQSVSSYLAWYQQKPGQAPRLLIYDASNRATGIPARFSGSGSGTDFTLTISSLEPEDFAVYYCQQRSNWPTFGGGTKVEIK
notes: Soluble Fab
B12: H37L92 (Fab, V domains shown)
VH: B9 VH with G102A
VL: QSALTQPASVSGSPGQSITISCTGTSSDVGGYKYVSWYQQHPGKAPKLIIYDVTNRPSGVSKRFSGSKSGNTASLTISGLQAEDEADYYCSSYTSRSTPVFGGGTKVTVL
notes: Soluble Fab
B13: H38L75 (Fab, V domains shown)
VH: B9 VH
VL: B9 VL with V13L, S30R, Y32F, A51T, N53K, A55P, A60D, N93S, Q100G, K103T
notes: Soluble Fab
B14: H36L76 (Fab, V domains shown)
VH: B9 VH with N31S, G102A
VL: not shown
notes: Soluble Fab, clone B
B15: H10L122 (Fab, V domains shown)
VH: QVQLVQSGAEVKKPGASVKVSCKASGYSFSNYYMHWVRQAPGEGLEWMGIINPKGGTTSYAQKFQGRVTIAADKFTNSAYMEPSSLRYEDTAVYFCARAKFSWSPDIWGQGTVVTVSS
VL: QAVVTQEPSLTVSPGGTVTLTCDSSTGAVTSGHYPYWLQQKPGQAPRTLIYDTHNKHSWTPGRFSGSLLGGKAALTLSGAQPEDEAEYYCSLSYSAVWVFGGGTKLTVL
notes: Soluble Fab

molecular target: T1, H44L4 full-length IgG; assay: peptide ELISA (scheme of FIG. 8)
T1 construct: also called autoanti-GPIIb/IIIa

| Binder | binding result |
| --- | --- |
| CVTSKPHTC [P74-5] | binds |
| CQHKLPSNC [P73-7] | binds |
| IDVWWLSTQGVP [P124-1] | binds |
| B1 | binds |
| CETWWRLSC [P73-6] | binds |
| CIIPFMFQC [P73-9] | binds |
| FLPISTLITPSG [P123-8] | binds |
| LPFDTIIKPWPV [P123-11] | binds |
| B2 | binds |
| B3 | binds |
| CTWLPYPYC [P74-9] | binds |
| KHSMPINAILPP [P124-8] | binds |
| WSLHTLGLPFVF [P123-10] | binds |
| CVVQWMFQC [P74-1a] | binds |
| CVVSWMFQC [P74-8] | binds |
| CLIPWMFNC [P74-3] | binds |
| LPFNTLIVPGRT [P124-11] | binds |
| B4 | binds |
| CVVPWFFHC [P74-4] | binds |
| CTHWWRPAC [P73-10] | binds |
| CIVEHFFHC [P73-2] | binds |
| FPLMSLINPWRT [P124-2] | binds |
| CLVPWMFHC [P73-11] | binds |

molecular target: T2, GPIa/IIa on a stable K562 cell line (UniProt P17301 30-1181; P05556 21-798, limits assumed); assay: flow cytometry on K562 cells expressing GPIa/IIa
T2 construct: whole, on cells; also called K562 cell line expressing GPIa/IIa

| Binder | binding result |
| --- | --- |
| B5 | no binding |
| B6 | no binding |
| B7 | no binding |
| B8 | no binding |
| B9 | no binding |
| B10 | no binding |
| B11 | no binding |
| B12 | no binding |
| B13 | no binding |
| B14 | no binding |
| B15 | no binding |

molecular target: T3, GPIIb/IIIa on intact human platelets (human, UniProt P08514 32-1039; P05106 27-788); assay: immunoprecipitation from biotinylated platelets; agrees with ELISA and Glanzmann platelet flow cytometry;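 note: precipitated biotin-labelled platelet membrane proteins visualized with biotinylated horseradish peroxidase-avidin complexes, scored for polypeptides behaving like GPIIb/IIIa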
T3 construct: whole, on cells; also called platelet GPIIb/IIIa; αIIbβ3
Text: Precipitated, biotinylated platelet membrane proteins were detected with biotinylated horseradish peroxidase-avidin complexes (ABC Staining Kit, Pierce).

| Binder | binding result |
| --- | --- |
| B5 | no binding |
| B6 | no binding |
| B7 | no binding |
| B8 | no binding |
| B9 | no binding |
| B10 | no binding |
| B11 | no binding |
| B12 | no binding |
| B13 | no binding |
| B14 | no binding |
| B15 | no binding |
